Assay results as given in article PMC4648099.

How the values were obtained:
[1] = molecular target: T1, thrombin (alpha-thrombin) (UniProt P00734;P00734 328-363;364-622); assay: competition (FAM fluorescence displacement); fit of pair TBA-FAM/TBA; 100 mM KCl; Fluorescence assays: 10 mM sodium cacodylate pH 7.2, 100 mM KCl, 20 °C, 20 nM FAM-aptamer (100 nM thrombin in displacement); EMSA: 1xTBE pH 8.3, 100 mM KCl (ann)
[2] = molecular target: T1, thrombin (alpha-thrombin); assay: competition (FAM fluorescence displacement); TBA-FAM Kd fixed at 15 nM; 100 mM KCl; Fluorescence assays: 10 mM sodium cacodylate pH 7.2, 100 mM KCl, 20 °C, 20 nM FAM-aptamer (100 nM thrombin in displacement); EMSA: 1xTBE pH 8.3, 100 mM KCl (ann)
[3] = molecular target: T1, thrombin (alpha-thrombin); assay: competition (FAM fluorescence displacement); fit of pair TBA-FAM/TBA-N8; 100 mM KCl; Fluorescence assays: 10 mM sodium cacodylate pH 7.2, 100 mM KCl, 20 °C, 20 nM FAM-aptamer (100 nM thrombin in displacement); EMSA: 1xTBE pH 8.3, 100 mM KCl (ann)

Binder | Kd [1] | Kd [2] | Kd [3]
GGTTGGTGTGGTTGG (structured_DNA) [TBA] | 15.8 nM | 23.7 nM | –
GGTTGGTGTGGTTGG (structured_DNA, 3' hexaethyleneglycol linker) [TBA-FAM] | 11.3 nM | – | 18.3 nM
